Source: patent publication US20210079089A1 (SURROZEN OPERATING, published 2021)
Substitutions are numbered along the chain they refer to. In names and notes the source's numbering stands.

T1: LRP6e1e2 (UniProt O75581 20-630, limits assumed, C-terminally biotinylated)
T1 construct: domain: E1E2; also called LRP6 E1E2 domains
T1 sequence (looked up): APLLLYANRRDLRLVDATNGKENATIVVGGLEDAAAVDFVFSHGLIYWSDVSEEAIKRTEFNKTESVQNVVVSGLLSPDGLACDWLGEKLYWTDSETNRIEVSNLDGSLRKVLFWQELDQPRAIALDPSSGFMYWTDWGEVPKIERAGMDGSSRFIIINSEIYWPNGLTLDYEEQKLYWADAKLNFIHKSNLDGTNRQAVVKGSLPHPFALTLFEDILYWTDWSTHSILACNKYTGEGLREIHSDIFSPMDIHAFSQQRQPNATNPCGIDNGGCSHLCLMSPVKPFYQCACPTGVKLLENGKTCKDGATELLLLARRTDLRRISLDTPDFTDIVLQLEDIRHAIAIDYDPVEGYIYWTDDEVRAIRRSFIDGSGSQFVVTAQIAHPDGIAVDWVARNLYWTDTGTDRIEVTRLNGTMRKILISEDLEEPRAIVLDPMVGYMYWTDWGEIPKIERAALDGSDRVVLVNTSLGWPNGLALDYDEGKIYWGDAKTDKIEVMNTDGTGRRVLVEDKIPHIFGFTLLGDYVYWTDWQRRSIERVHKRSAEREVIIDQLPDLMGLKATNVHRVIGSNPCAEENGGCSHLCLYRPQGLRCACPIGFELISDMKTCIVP

T2: LRP6E3E4_O75581_631-1246 (Homo sapiens (Human), UniProt O75581 631-1246, biotinylated in the BLI/SPR assays (C-terminal biotin acceptor peptide))
T2 construct: The entry holds residues 631-1246 of UniProt O75581 followed by a biotin acceptor peptide and eight His; For crystals the complex was treated with carboxypeptidase A and B
T2 sequence: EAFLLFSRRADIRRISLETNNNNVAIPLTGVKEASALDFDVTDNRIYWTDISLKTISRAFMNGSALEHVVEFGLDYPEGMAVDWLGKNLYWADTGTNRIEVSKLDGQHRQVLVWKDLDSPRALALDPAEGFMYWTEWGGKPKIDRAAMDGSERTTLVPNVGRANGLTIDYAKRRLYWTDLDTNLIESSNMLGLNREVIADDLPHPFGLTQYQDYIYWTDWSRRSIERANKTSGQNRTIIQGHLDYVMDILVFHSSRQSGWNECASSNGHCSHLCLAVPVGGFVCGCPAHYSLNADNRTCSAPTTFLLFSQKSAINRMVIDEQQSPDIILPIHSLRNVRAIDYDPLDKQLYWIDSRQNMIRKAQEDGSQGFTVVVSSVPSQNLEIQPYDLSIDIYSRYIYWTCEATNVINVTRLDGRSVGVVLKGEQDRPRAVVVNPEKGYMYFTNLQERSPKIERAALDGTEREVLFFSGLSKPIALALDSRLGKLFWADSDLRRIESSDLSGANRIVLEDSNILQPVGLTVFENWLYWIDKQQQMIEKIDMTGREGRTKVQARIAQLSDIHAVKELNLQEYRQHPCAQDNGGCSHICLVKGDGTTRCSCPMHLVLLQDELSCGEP

T3: biotinylated-LRP6 CRD (UniProt O75581 631-1246, limits assumed, biotinylated)
T3 construct: LRP6 has no CRD
T3 sequence (looked up): T2 sequence

B1: 013S-G04 (HC SEQ ID NO 15) (VHH)
VHH: AVQLVESGGGLVQAGGSLRLACAGSGRIFAIYDIAWYRQAPGNQRELVATIRPVVSETTYADAVKGRFTISRSNAMKTVYLQMNSLKSEDTAIYYCNAKRPWGTRDEYWGQGTLVTVSS
B2: 009S-H04 (VHH)
VHH: B1 VHH with A1E, I34M
B3: 009S-B04 (VHH)
VHH: DVQLVESGGGLVQPGGSLRLSCAASGSIFMINTMAWYRQAPGNQRELVATIRPVVSETTYADAVKGRFTISRDNAKNTVYLQMNSLKSEDTAIYYCNAKRPWGTRDEYWGQGTLVTVSS
B4: 013S-H04 (HC SEQ ID NO 16) (VHH)
VHH: AVQLVDSGGGLVQAGGSLRLSCAVSGRTFSMYDMGWFRQAPGKEREFVASIRWSSGNTWYADSMKGRFTISRDNAKNTVYLQMNSLKPEDTAVYYCYANIYYTRRAPEEYWGQGTLVTVSS
B5: 009S-G04 (VHH)
VHH: EVQLVESGGGLVQAGGSLRVSCAASGGTFSRYHMGWFRQAPGKEREFVSAITWSGGRTYYADFVKGRFTISRDDARNTVYLQMSSLKPEDTAVYYCALTWAPTPTNRRSDYAYWGQGTQVTVSS
B6: 009S-A03 (VHH)
VHH: QVQLVESGGGLVQAGDSLRLSCVVSGRTFSVYGVGWFRQAPGKEREVVAAVSASGGYTWYADSVKGRFTISRDNAKSTAFLQMNSLQPEDTAVYYCKAAPRWGGATAYWGQGTQVTVSS
B7: 001S-F11 (VHH)
VHH: QVQLVESGGGLVQAGGSLRLSCAASGRTFSSYAMSWFRQAPGKEREFVAVIGRSGGIKYYADSVKGRFTISRDNTINTVYLQMNNLTPEDTAIYYCATRRPFNSYNTEQSYDSWGRGTLVTVSS
B8: 009S-H03 (VHH)
VHH: DVQLVESGGGLVQAGESLRLSCAASGSIFSINTMGWYRQAPGKERELVAVITSGGKTVYADSVKGRFTITEDAAKNTVYLQMNSLKAEDTAVYYCYADSRSSWYDEYLEHWGQGTLVTVSS
B9: 013S-A05 (VHH)
VHH: EVQLVESGGGLVQAGGSLRLSCATSGRTFNTYAMGWFRQAPGKEREFVASVSWRYDRTYYTDTVKGRFTISRDNAKNTVYLQMNSLKPEDTAVYFCAADTNWRAGPRVGIDEYAYWGQGTLVTVSS
B10: 013S-G04 (HC SEQ ID NO 19) (VHH)
VHH: B1 VHH
B11: 013S-C05 (HC SEQ ID NO 22) (VHH)
VHH: EVQLVESGGGLVQPGGSLRLSCAVSRNIFPIDDMSWYRQAPGKQRELVATVTSGGRINYADSVKGRFTISRDGARRTIDLQMNNLKPEDTAVYYCNVDRTLYGKYKEYWGQGTLVTVSS
B12: 013S-H04 (HC SEQ ID NO 20) (VHH)
VHH: B4 VHH
B13: 013S-D05 (HC SEQ ID NO 23) (VHH)
VHH: QVKLEESGGGLVQAGGSLRLSCAASGRIFSIYDMGWFRQAPGKEREFVSGIRWSGGTSYADSVKGRFTISKDNAKNTIYLQMNNLKAEDTAVYYCGSRGYWGQGTLVTVSS
B14: 009S-A05 (VHH)
VHH: AVQLVDSGGGLVQAGDSLTLSCAASGRTFSDYSMGWFRQAPGKEREFVAGISWIADNRYYADVVKGRFTISRDNAKNTVYLQMNSLKPEDTAVYYCTAGRSRYLYGSSLNGPYDYWGQGTQVTVSS
B15: 009S-F04 (VHH)
VHH: AVQLVESGGGVVQAGDSLTLSCTMSGRSLSSFAMGWFRRAPGKEREFVARISRGDGYTDEADSVKGRFTISRDNAKNTVYLQMNNVGPEDTAVYHCAAVQAVIGGTLTTAYDYWGQGTLVTVSS
B16: 009S-E04 K1A (VHH)
VHH: DVQLVESGGGLVQAGGSLRLACAGSGRIFAIYDIAWYRHPPGNQRELVAMIRPVVTEIDYADSVKGRFTISRNNAMKTVYLQMNNLKPEDTAVYYCNAARPWGSRDEYWGQGTQVTVSS
B17: 009S-E04 R7A (VHH)
VHH: B16 VHH with A99K, R105A
B18: 009S-E04 R2A (VHH)
VHH: B16 VHH with A99K, R100A
B19: 009S-E04 Y10A (VHH)
VHH: B16 VHH with A99K, Y108A
B20: 009S-E04 E9A (VHH)
VHH: B16 VHH with A99K, E107A
B21: 009S-E04 D8A (VHH)
VHH: B16 VHH with A99K, D106A
B22: 009S-E04 P3A (VHH)
VHH: B16 VHH with A99K, P101A
B23: 009S-E04 W4A (VHH)
VHH: B16 VHH with A99K, W102A
B24: 009S-E04 S6A (VHH)
VHH: B16 VHH with A99K, S104A
B25: 009S-E04 G5A (VHH)
VHH: B16 VHH with A99K, G103A

Each binder was assayed against T1, LRP6e1e2 (assay: Octet BLI).
Description: (§1) Binding kinetics of antibody fragments to LRP5 extracellular domain (LRP5 ECD) and/or LRP6 extracellular domain (LRP6 ECD) protein targets was determined by bio-layer interferometry (BLI) using Octet Red 96 (PALL ForteBio, Fremont, Calif.) instruments at 30° C., 1000 rpm with streptavidin (SA) biosensors. C-terminal biotinylated LRP ECD recombinant protein was diluted to 20 nM in the running buffer (PBS, 0.05% Tween-20, 0.5% BSA, pH 7.2) and captured to the SA biosensor until coupling length reached 0.2 nm. Following capture of the LRP5 or LRP6, the SA biosensor with captured biotinylated-LRP5 or biotinylated LRP6 was dipped into wells containing the relevant antibody fragment at […] (0, 1.37, 4.12, 12.4, 37, 111.1, 333.3, 1000 nM) in running buffer, plus a well with only running buffer as a reference channel. KD was determined by global fitting, 1:1 binding model according to manufacturer recommended settings.

binding result	Binder
no binding	B1
no binding	B2
no binding	B3
no binding	B4
no binding	B5

Each binder was assayed against T1, LRP6e1e2 (assay: Octet BLI or BIAcore SPR).

Kd	Binder
< 500 nM	B6
< 500 nM	B7
< 500 nM	B8

What follows are binders tested against T2, LRP6E3E4_O75581_631-1246 (assay: Octet BLI or BIAcore SPR).

Kd	Binder
> 500 nM	B9
< 500 nM	B1
< 500 nM	B2
< 500 nM	B10
< 500 nM	B3
< 500 nM	B11
< 500 nM	B4
< 500 nM	B12
< 500 nM	B13
> 500 nM	B14
< 500 nM	B5
> 500 nM	B15

The binders below were run against T1, LRP6e1e2 (assay: Octet BLI, affinity class).
Description: as §1

Kd	Binder
< 500 nM	B6
< 500 nM	B8

What follows are binders tested against T2, LRP6E3E4_O75581_631-1246 (assay: Octet BLI, affinity class).
Description: as §1

Kd	Binder
> 500 nM	B6
< 500 nM	B1
< 500 nM	B2
< 500 nM	B3
< 500 nM	B4
< 500 nM	B8
> 500 nM	B14
< 500 nM	B5
> 500 nM	B15

What follows are binders tested against T3, biotinylated-LRP6 CRD (assay: Octet BLI, biotinylated LRP6).
Description: as §1
One antibody fragment, 009S-E04, was selected for alanine-scanning mutagenesis of CDRs, and the respective LRP6 binding affinities of the various mutants were determined by Octet BLI as described in Example 1.

Kd	Binder
< 100 nM	B16
< 100 nM	B17
< 100 nM	B18
< 100 nM	B19
< 100 nM	B20
< 100 nM	B21
< 100 nM	B22
< 100 nM	B23
< 100 nM	B24
< 100 nM	B25
